From paper PMC4190115

Molecular target: His-tagged N-terminal domain (1-165 aa) of matrix protein 1 (M1) of influenza A virus A/WSN/33 (H1N1) (Influenza A virus A/WSN/33 (H1N1)) (UniProt P05777)
Test: crystal structure

His-tagged N-terminal domain (1-165 aa) of matrix protein 1 (M1) of influenza A virus A/WSN/33 (H1N1) (from UniProt P05777 1-165) (domain or fragment)
stoichiometry N: 2
